Biological target: Vascular endothelial growth factor receptor 1 (human (endogenous in HT29), UniProt P17948 27-1338)
Test: cell-based or functional assay

Chain of Vascular endothelial growth factor receptor 1 (P17948 27-1338): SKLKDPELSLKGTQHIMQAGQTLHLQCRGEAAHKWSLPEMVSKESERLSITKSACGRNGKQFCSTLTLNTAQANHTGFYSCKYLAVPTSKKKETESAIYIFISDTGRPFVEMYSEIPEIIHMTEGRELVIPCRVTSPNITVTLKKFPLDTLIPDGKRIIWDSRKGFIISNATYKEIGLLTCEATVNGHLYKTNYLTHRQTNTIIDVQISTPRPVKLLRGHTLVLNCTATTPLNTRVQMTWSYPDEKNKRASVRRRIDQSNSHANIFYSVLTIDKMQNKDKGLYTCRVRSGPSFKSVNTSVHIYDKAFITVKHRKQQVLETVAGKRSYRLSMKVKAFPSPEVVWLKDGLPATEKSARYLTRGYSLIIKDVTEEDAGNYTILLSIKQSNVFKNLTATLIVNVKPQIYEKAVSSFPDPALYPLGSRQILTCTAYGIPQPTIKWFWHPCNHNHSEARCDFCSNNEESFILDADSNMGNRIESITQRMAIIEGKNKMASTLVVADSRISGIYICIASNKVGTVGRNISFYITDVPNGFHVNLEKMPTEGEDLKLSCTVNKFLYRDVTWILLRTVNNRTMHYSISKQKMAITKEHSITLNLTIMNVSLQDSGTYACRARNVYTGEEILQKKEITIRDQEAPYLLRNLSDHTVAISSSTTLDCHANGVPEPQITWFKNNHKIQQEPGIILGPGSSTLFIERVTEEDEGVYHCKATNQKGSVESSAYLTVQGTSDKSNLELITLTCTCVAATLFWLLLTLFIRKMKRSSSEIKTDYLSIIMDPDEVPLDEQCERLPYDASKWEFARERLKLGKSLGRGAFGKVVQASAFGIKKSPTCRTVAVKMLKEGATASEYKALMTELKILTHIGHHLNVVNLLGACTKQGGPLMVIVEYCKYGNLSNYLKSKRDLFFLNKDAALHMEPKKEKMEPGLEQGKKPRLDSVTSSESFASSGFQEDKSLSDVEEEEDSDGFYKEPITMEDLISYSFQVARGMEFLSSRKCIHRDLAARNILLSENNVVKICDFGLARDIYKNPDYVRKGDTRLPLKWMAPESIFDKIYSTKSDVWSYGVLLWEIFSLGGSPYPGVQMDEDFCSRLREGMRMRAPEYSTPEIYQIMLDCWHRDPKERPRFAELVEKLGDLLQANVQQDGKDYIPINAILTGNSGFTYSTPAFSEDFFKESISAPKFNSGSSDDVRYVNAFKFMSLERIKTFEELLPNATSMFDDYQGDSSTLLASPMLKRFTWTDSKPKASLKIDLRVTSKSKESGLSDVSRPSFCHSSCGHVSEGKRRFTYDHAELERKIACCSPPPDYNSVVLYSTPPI

Yes kinase activity by immune complex kinase assay in HT29 cells treated with VEGF-A (10 ng ml^−1) for 0-15 min: ~2.5 fold
B1: Yes (enzyme)
chain: not shown

— PMC2361330 (British Journal of Cancer, 2006)
